These results are taken from the supplement of paper PMC9112550, “Optimization of the antimicrobial peptide Bac7 by deep mutational scanning” (BMC Biology, 2022).
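Note: peptides expressed intracellularly from a pBAD plasmid library in pooled LB shake-flask culture, induced with 0.3% L-arabinose, DNA abundance read by NGS, three biological replicates, DESeq2 with apeglm shrinkage.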

This data set deals with Escherichia coli TOP10. The data set is described as follows: shrunken log2 fold change of peptide-encoding DNA abundance (4.5 h post-induction vs induction); higher = less antimicrobial activity (less host growth inhibition). The conditions noted are these: time post-induction: 4.5 h; library: site-saturation at positions 5, 18, 19, 20.
Turning to RRIRYRPPRLPRPRPRPMTLPRP, the “shrunken log2 fold change” value was -0.0394. Take RRIRTRPPRLPRPRPRPWVYPRP: the “shrunken log2 fold change” value was -0.294. On to RRIRKRPPRLPRPRPRPVEAPRP, for which the “shrunken log2 fold change” value was 0.657. Next, RRIRLRPPRLPRPRPRPQMCPRP: -0.0742; RRIRERPPRLPRPRPRPKERPRP: 0.547. Next, RRIRGRPPRLPRPRPRPHVVPRP: 0.1. Next, RRIRARPPRLPRPRPRPDASPRP: 1.94. Consider RRIRPRPPRLPRPRPRPGPHPRP, for which the “shrunken log2 fold change” value is 0.134.

In the case of RRIRARPPRLPRPRPRPNMAPRP, the “shrunken log2 fold change” value was determined as 0.114.

Turning to RRIRMRPPRLPRPRPRPSPCPRP, the “shrunken log2 fold change” value came to 0.18. Next, RRIRARPPRLPRPRPRPGTHPRP: 0.173. Under RRIRWRPPRLPRPRPRPPTYPRP stands -0.104; under RRIRERPPRLPRPRPRPWTQPRP, -0.298; under RRIRWRPPRLPRPRPRPQSMPRP, 0.0679. Take RRIRYRPPRLPRPRPRPALLPRP: the “shrunken log2 fold change” value is -0.0984. Next, RRIRCRPPRLPRPRPRPVCIPRP: -0.499; RRIRQRPPRLPRPRPRPTLNPRP: 0.0729. RRIRGRPPRLPRPRPRPYTMPRP: the “shrunken log2 fold change” value was -0.342. Under RRIRMRPPRLPRPRPRPNDYPRP stands -0.103; under RRIRRRPPRLPRPRPRPLTKPRP, 0.132; under RRIRFRPPRLPRPRPRPDACPRP, 0.0499. Next, RRIRCRPPRLPRPRPRPCAWPRP: 0.0576. Under RRIRYRPPRLPRPRPRPYYWPRP stands -0.111; under RRIRPRPPRLPRPRPRPPVLPRP, -0.0339; under RRIRNRPPRLPRPRPRPKPMPRP, 0.375. Consider RRIRDRPPRLPRPRPRPSHSPRP, for which the “shrunken log2 fold change” value is -0.127. As for RRIRQRPPRLPRPRPRPTKEPRP, the “shrunken log2 fold change” value came out at 0.0425. Turning to RRIRYRPPRLPRPRPRPFYTPRP, the “shrunken log2 fold change” value is -1.19. Next, RRIRNRPPRLPRPRPRPAWCPRP: 0.0129; RRIRCRPPRLPRPRPRPLKHPRP: -0.584.

As to RRIRLRPPRLPRPRPRPEKSPRP, the “shrunken log2 fold change” value was determined as 0.123. Next, RRIRWRPPRLPRPRPRPSSIPRP: -0.338; RRIRIRPPRLPRPRPRPKVVPRP: -0.00466. Under RRIRMRPPRLPRPRPRPFYCPRP stands -0.118; under RRIRIRPPRLPRPRPRPCLSPRP, -0.0164. Under RRIRERPPRLPRPRPRPLITPRP stands -0.412; under RRIRKRPPRLPRPRPRPKWTPRP, 0.198. For the sequence RRIRMRPPRLPRPRPRPQEHPRP, the “shrunken log2 fold change” value was determined as 0.0123. Under RRIRHRPPRLPRPRPRPGKFPRP stands -0.175.

As for RRIRLRPPRLPRPRPRPGHGPRP, the “shrunken log2 fold change” value was -0.00133. Regarding RRIRKRPPRLPRPRPRPYFTPRP, the “shrunken log2 fold change” value is -0.0968. As for RRIRSRPPRLPRPRPRPRTMPRP, the “shrunken log2 fold change” value was found to be 0.108. In the case of RRIRHRPPRLPRPRPRPLFPPRP, the “shrunken log2 fold change” value is -0.102. Under RRIRTRPPRLPRPRPRPIQCPRP stands -0.521; under RRIRTRPPRLPRPRPRPWMYPRP, -0.22; under RRIRFRPPRLPRPRPRPCWVPRP, -0.331.

RRIRFRPPRLPRPRPRPEVKPRP: the “shrunken log2 fold change” value is -0.00444. RRIRTRPPRLPRPRPRPNCDPRP: the “shrunken log2 fold change” value was determined as 1.31. Under RRIRTRPPRLPRPRPRPCDAPRP stands 0.0216; under RRIRPRPPRLPRPRPRPSNGPRP, -0.113.

RRIRYRPPRLPRPRPRPQIDPRP: the “shrunken log2 fold change” value amounted to 0.0753. Next, RRIRLRPPRLPRPRPRPFIRPRP: -0.245. Under RRIRIRPPRLPRPRPRPRYNPRP stands -0.588.

With RRIRRRPPRLPRPRPRPQHSPRP, the “shrunken log2 fold change” value was -0.0462. Next, RRIRRRPPRLPRPRPRPKGYPRP: 0.172. Turning to RRIRQRPPRLPRPRPRPRTPPRP, the “shrunken log2 fold change” value was 0.676. Under RRIRNRPPRLPRPRPRPKCDPRP stands -0.471; under RRIRLRPPRLPRPRPRPEGVPRP, 0.568.

With RRIRRRPPRLPRPRPRPHDTPRP, the “shrunken log2 fold change” value was -0.0817. Next, RRIRVRPPRLPRPRPRPLHSPRP: -0.0269; RRIRNRPPRLPRPRPRPPMMPRP: 0.0507. For RRIRDRPPRLPRPRPRPIHYPRP, the “shrunken log2 fold change” value was -0.0149. Next, RRIRNRPPRLPRPRPRPEYRPRP: -0.159; RRIRLRPPRLPRPRPRPSPHPRP: -0.242.

In the case of RRIRSRPPRLPRPRPRPGHMPRP, the “shrunken log2 fold change” value was found to be 0.0805. Under RRIRKRPPRLPRPRPRPQAWPRP stands 0.314; under RRIRDRPPRLPRPRPRPVGQPRP, 0.435; under RRIRDRPPRLPRPRPRPIRVPRP, -0.185. Under RRIRERPPRLPRPRPRPSIQPRP stands -0.0558; under RRIRIRPPRLPRPRPRPWDSPRP, -0.0632.

Turning to RRIRHRPPRLPRPRPRPPLNPRP, the “shrunken log2 fold change” value is -0.0242. For the sequence RRIRHRPPRLPRPRPRPTAQPRP, the “shrunken log2 fold change” value is -0.054. On to RRIRRRPPRLPRPRPRPISVPRP, for which the “shrunken log2 fold change” value was -0.115. Under RRIRYRPPRLPRPRPRPVMAPRP stands -0.335. Next, RRIRTRPPRLPRPRPRPHWDPRP: -0.245; RRIRKRPPRLPRPRPRPRLCPRP: 0.308. Next, RRIRYRPPRLPRPRPRPPFIPRP: -0.637; RRIRLRPPRLPRPRPRPEDAPRP: 0.368; RRIRKRPPRLPRPRPRPIPHPRP: 0.359. Regarding RRIRDRPPRLPRPRPRPNTRPRP, the “shrunken log2 fold change” value was -0.238. Next, RRIRERPPRLPRPRPRPSECPRP: -0.592; RRIRKRPPRLPRPRPRPNSMPRP: -0.115; RRIRNRPPRLPRPRPRPCPKPRP: 0.0342. For RRIRGRPPRLPRPRPRPSARPRP, the “shrunken log2 fold change” value was 1.1. On to RRIRDRPPRLPRPRPRPETGPRP, for which the “shrunken log2 fold change” value was -0.0106. On to RRIRCRPPRLPRPRPRPKIWPRP, for which the “shrunken log2 fold change” value turned out to be 0.121. For RRIRDRPPRLPRPRPRPSNVPRP, the “shrunken log2 fold change” value was -0.0805. Under RRIRKRPPRLPRPRPRPWPWPRP stands 0.847; under RRIRFRPPRLPRPRPRPGASPRP, 0.109; under RRIRCRPPRLPRPRPRPITMPRP, -0.309. Next, RRIRCRPPRLPRPRPRPTWFPRP: 0.141; RRIRCRPPRLPRPRPRPCTQPRP: -0.887; RRIRKRPPRLPRPRPRPESLPRP: -0.024. For the sequence RRIRTRPPRLPRPRPRPIKTPRP, the “shrunken log2 fold change” value was -0.0452.

Regarding RRIRRRPPRLPRPRPRPRNEPRP, the “shrunken log2 fold change” value worked out at 0.18. In the case of RRIRCRPPRLPRPRPRPWMRPRP, the “shrunken log2 fold change” value was 0.19. Next, RRIRLRPPRLPRPRPRPVAAPRP: 0.382; RRIRRRPPRLPRPRPRPDVGPRP: -0.042.

As for RRIRKRPPRLPRPRPRPDYCPRP, the “shrunken log2 fold change” value was found to be 0.0953. Next, RRIRCRPPRLPRPRPRPHDAPRP: -0.336; RRIRDRPPRLPRPRPRPVFDPRP: 0.291; RRIRTRPPRLPRPRPRPERGPRP: 0.715. For the sequence RRIRWRPPRLPRPRPRPLDTPRP, the “shrunken log2 fold change” value was 0.0244.

On to RRIRWRPPRLPRPRPRPSIVPRP, for which the “shrunken log2 fold change” value is -0.00221. Under RRIRDRPPRLPRPRPRPDNSPRP stands 0.0428.

In the case of RRIRIRPPRLPRPRPRPLKGPRP, the “shrunken log2 fold change” value is -0.0404. Under RRIRWRPPRLPRPRPRPGVPPRP stands 0.184. For RRIRCRPPRLPRPRPRPETRPRP, the “shrunken log2 fold change” value worked out at 0.209. Under RRIRDRPPRLPRPRPRPYGEPRP stands -0.31. For RRIRTRPPRLPRPRPRPTKCPRP, the “shrunken log2 fold change” value is -0.173.

For the sequence RRIRGRPPRLPRPRPRPIWHPRP, the “shrunken log2 fold change” value came to 0.213. As to RRIRSRPPRLPRPRPRPSTKPRP, the “shrunken log2 fold change” value is -0.00791. Next, RRIRFRPPRLPRPRPRPINYPRP: -0.0562.

On to RRIRMRPPRLPRPRPRPTTPPRP, for which the “shrunken log2 fold change” value amounted to 1.15.

As for RRIRMRPPRLPRPRPRPQRNPRP, the “shrunken log2 fold change” value stood at 0.209.

Turning to RRIRFRPPRLPRPRPRPKYRPRP, the “shrunken log2 fold change” value turned out to be 0.225. For the sequence RRIRTRPPRLPRPRPRPPRPPRP, the “shrunken log2 fold change” value is 0.713. Take RRIRFRPPRLPRPRPRPAFSPRP: the “shrunken log2 fold change” value is 0.049. Next, RRIRYRPPRLPRPRPRPIRRPRP: -0.0923; RRIRWRPPRLPRPRPRPNHQPRP: -0.342; RRIRNRPPRLPRPRPRPYQWPRP: -0.098. Regarding RRIRVRPPRLPRPRPRPQSAPRP, the “shrunken log2 fold change” value is -0.054. Next, RRIRHRPPRLPRPRPRPPMHPRP: -0.0169; RRIRARPPRLPRPRPRPSFAPRP: 0.432. Turning to RRIRHRPPRLPRPRPRPVIKPRP, the “shrunken log2 fold change” value is -0.0701.
